Results from publication PMC12285222.

Biological target: trypsin-processed Vip3Cb1 toxin (Paenibacillus sp. strain DSC004343)
Assay: cryo-EM structure

In the case of “trypsin-processed Vip3Cb1 toxin (complex)”, the stoichiometry N is reported as 4.
